Test results: patent US7790682B1, “Engineered human acidic fibroblast growth factors and associated methods” (The Florida State University Research Foundation, Inc., priority 2003, dated 2010)
Entries after “also recorded” stand apart in the source; their conditions may differ.

B1: SYM6: FGF-1 core mutant Leu44→Phe/Met67→Ile/Leu73→Val/Val109→Leu/Leu111→Ile/Cys117→Val (protein, UniProt P05230 16-155, looked up, variant L44F M67I L73V V109L L111I C117V)
Fibroblast growth factor 1: FNLPPGNYKKPKLLYCSNGGHFLRILPDGTVDGTRDRSDQHIQFQLSAESVGEVYIKSTETGQYLAIDTDGLVYGSQTPNEECLFLERLEENHYNTYISKKHAEKNWFLGIKKNGSVKRGPRTHYGQKAILFLPLPVSSD
B2: WTΔ120-122: Wild type FGF-1 polypeptide with a deletion at positions 120-122, SEQ ID NO: 3 (protein)
chain: FNLPPGNYKKPKLLYCSNGGHFLRILPDGTVDGTRDRSDQHIQLQLSAESVGEVYIKSTETGQYLAMDTDGLLYGSQTPNEECLFLERLEENHYNTYISKKHAEKNWFVGLKKNGSCKGTHYGQKAILFLPLPVSSD
modifications: Human FGF-1 mutant WTD120-122

Key:
[1] = Isothermal equilibrium denaturation in guanidine HCl monitored by CD; assay type: physicochemical; settings: relative to SYM6ΔΔ
Experimental: Protein samples were equilibrated overnight in 20 mM N-2-(acetamido)iminodiacetic acid (ADA), 100 mM NaCl pH 6.60 at 298K in 0.1M increments of guanidine HCl (GuHCl). All samples contained a final protein concentration of 25 μM. An Aviv model 202 circular dichroism spectrometer (Proterion Corp., Piscataway, N.J.) equipped with a Peltier controlled temperature unit maintaining a constant temperature of 298K was used for all spectroscopic measurements. For each sample, triplicate scans were collected and averaged. Buffer traces were collected, averaged and subtracted from the sample traces. Data smoothing was performed prior to buffer subtraction using a 5-point Fourier transform filter. The denaturation process was monitored by observing the change in CD signal at 227 nm with increasing GuHCl, according to published references. The general purpose non-linear least squares fitting program DataFit™ (Oakdale Engineering, Oakdale Pa.) was used to fit the change in molar ellipticity at 227 nm versus GuHCl concentration to a six parameter two state model: F=(F0N+SN[D]+F0D+SD[D])e^−((ΔG0+m[D]/RT)/1+e^−((ΔG0+m[D]/RT) (1) where [D] is the denaturant concentration, F0N and F0D are the 0M denaturant molar ellipticity intercepts for the native and denatured states, respectively, and SN and SD are the slopes of the native and denatured state baselines, respectively. ΔG0 and m describe the linear function of the unfolding free energy versus denaturant concentration at 298K. The effect of a given mutation upon the stability of the protein (ΔΔG) was calculated by taking the difference between the Cm values for WT* and mutant and multiplying by the average of the m values, as described by Pace and Scholtz (Measuring the conformational stability of a protein; in Protein Structure: A Practical Approach, Creighton, T. E., ed., pp. 299-321, Oxford University Press, Oxford; 1997): ΔΔG=(CmWT*−Cm mutant)(mWT*+mmutant)/2 (2) Folding Kinetics Measurements.
Previous studies by others of the stability and folding of FGF-1 have been performed by monitoring the fluorescence signal of the single buried Trp 107 in FGF-1. This Trp in the WT* structure is somewhat unusual in that it is more highly quenched in the native state than the denatured. […] We have previously compared the fluorescence and CD spectroscopic response of FGF-1 to denaturation by GuHCl and shown essentially indistinguishable results for both his-tagged and non-his-tagged forms. A tabulation of the mutant thermodynamic data from isothermal equilibrium denaturation, monitored by CD signal, is listed in Table II. The data in this table for the SYM6 mutant are from our previously published isothermal equilibrium denaturation study monitored by fluorescence.

[2] = Precipitation during purification or concentration; assay type: physicochemical
Experimental: All mutant proteins, with the exception of the SYM6 mutant were expressed at levels similar to the WT* protein (i.e. ˜30-100 mg/L). […] The His-tag provides the WT* and mutant FGF-1 proteins with nickel binding affinity, and FGF-1 naturally has a heparin binding site. These two affinity sites were employed in a purification scheme utilizing sequential nickel-NTA and heparin Sepharose® affinity chromatography resins. However, mutant forms of FGF-1 involving the Δ120-122 mutation lacked heparin-binding affinity. These mutants were, therefore, purified by the substitution of gel filtration chromatography for the heparin Sepharose® affinity chromatography. The extinction coefficients used for concentration determination were E280nm (0.1%, 1 cm)=1.26 for WT* and other mutations not involving deletions or the Leu44 ? […] Phe, and E280nm (0.1%, 1 cm)=1.31 for all deletion mutations (determined by dithionitrobenzoate titration of cysteine residues).
Due to the relatively weak differential CD signal of native and denatured FGF-1, the folding kinetics study required relatively high protein concentrations (>5 mg/ml). […] The SYM6Δ120-122 mutant is substantially destabilized relative to the WT* protein (see Table II) and presents a relatively short “folding arm” in the Chevron plot, for this reason there is greater uncertainty associated with the folding kinetics determined for this mutant. […]

[3] = monitored by fluorescence signal, cited from earlier work
[4] = system: NIH 3T3 fibroblasts; test: Cell proliferation (mitogenic activity) assay; assay type: cell-based; settings: predicted from data on other Δ120-122 mutants
Experimental: NIH 3T3 fibroblasts were initially plated in Dulbecco's modified Eagle's medium (DMEM) (American Type Culture Collection, Manassas Va.) supplemented with 10% (v/v) newborn calf serum (NCS) (Sigma, St. Louis Mo.), 100 units of penicillin, 100 μg streptomycin, 0.25 μg Fungizone™ and 0.01 mg/ml gentamicin (Gibco, Carlsbad Calif.) (“serum-rich” medium) in T75 tissue culture flasks (Fisher, Pittsburgh Pa.). The cultures were incubated at 37° C. and all cell growth was performed with 5% CO2 supplementation. At approximately 80% cell confluence, the cells were washed with 5 ml cold 0.14M NaCl, 5.1 mM KCl, 0.7 mM Na2HPO4 and 24.8 mM Trizma® base, pH 7.4 (TBS) and subsequently treated with 5 ml of a 0.025% trypsin solution (Invitrogen Corp., Carlsbad Calif.). Cell synchronization was initiated by serum starvation in DMEM with 0.5% NCS, 100 units of penicillin, 100 μg streptomycin, 0.25 μg Fungizone™ and 0.01 mg/ml gentamicin (“starvation” medium). The cells were seeded in T25 tissue culture flasks (Fisher, Pittsburgh, Pa.) at a cell density of 3.0×10^4 cells/cm^2 (representing ˜20% confluence). Duplicate flasks were used for each protein concentration. Cultures were incubated for 48 hours at 37° C., the medium was then decanted and replaced with fresh medium supplemented with the appropriate concentration of FGF-1 polypeptide, and incubated for an additional 48 hours. After this incubation, the medium was decanted and the cells were washed with 1 ml cold TBS pH 7.4. 1 ml of 0.025% trypsin was then added to release the cells from the flask surface, and 2 ml of serum-rich medium were added to dilute and inhibit the trypsin. The cells were counted using a hemocytometer (Hausser Scientific Partnership, Horsham Pa.). Experiments were performed in quadruplicate and the cell densities were averaged. The relationship between the cell number and log concentration of added growth factor was fit to a sigmoidal function.
Mitogenic activity towards NIH 3T3 fibroblasts was determined for WT*, SYM5, SYM5Δ104-106, SYM5Δ120-122, and SYM6ΔΔ mutants. […] The NIH 3T3 fibroblast proliferative activity of WT* FGF-1 yielded an effective concentration for 50% maximal stimulation (EC50) of 60 ng/ml (FIG. 3).

[5] = Heparin Sepharose affinity chromatography / heparin-binding affinity; settings: predicted from data on other Δ120-122 mutants
Description: All studies herein disclosed utilized a synthetic gene for the 140 amino acid form of human FGF-1 with the addition of an amino-terminal six residue “His-tag” to facilitate purification using nickel nitrilotriacetic acid (Ni-NTA) affinity resin (QIAGEN, Valencia Calif.). The QuikChange® site-directed mutagenesis protocol (Stratagene, La Jolla Calif.) was used to introduce mutations, individually or in combination, using mutagenic oligonucleotides of 25 to 31 bases in length (Biomolecular Analysis Synthesis and Sequencing Laboratory, Florida State University). For deletions involving residues 104-106 and 120-122, mutagenic oligonucleotides were used to delete these positions as well as to simultaneously create point mutations Ala103 ? Gly and Arg119 ? Gly, respectively. […]
All mutant proteins, with the exception of the SYM6 mutant were expressed at levels similar to the WT* protein (i.e. ˜30-100 mg/L). […] Phe, and E280nm (0.1%, 1 cm)=1.31 for all deletion mutations (determined by dithionitrobenzoate titration of cysteine residues).
To quantify the reduced affinity for heparin (a polysulfonated polysaccharide) we determined the affinity for sucrose octasulfate, a structural mimic of a heparin dimer, by isothermal titration calorimetry. […]

| Molecule | effect on stability of the two loop insertions [1] | precipitation / solubility (in words) [2] | Cm ([3]; previously reported) | m-value ([3]; previously reported) | ΔG0 ([3]; previously reported) | ΔΔG ([3]; relative to WT*, previously reported data) | mitogenicity, predicted [4] | heparin binding affinity, predicted [5] |
| --- | --- | --- | --- | --- | --- | --- | --- | --- |
| B1 | +25.3 kJ/mol | tendency to precipitate during purification; also recorded: typically precipitated during concentration | 0.54 ± 0.01 M | 19.3 ± 1.9 kJ/mol M | 2.49 ± 0.19 kcal/mol | 2.44 kcal/mol |  |  |
| B2 |  |  |  |  |  |  | increased biological activity with regard to mitogenicity | decreased heparin binding affinity |
